The values below are quoted from earlier work in article PMC6678900.

Some targets named below: TRAILR1 (Homo sapiens) (UniProt O00220); TRAILR2 (Homo sapiens) (UniProt O14763); TRAILR4 (Homo sapiens) (UniProt Q9UBN6).

On to TRAILR1 (from UniProt O00220), for which the dissociation constant Kd in the series with TRAILR1 (Homo sapiens) was greater than 1000 nM.
For the substance TRAILR2 (from UniProt O14763), the Kd with TRAILR2 (Homo sapiens) was greater than 1000 nM.
Take TRAILR4 (from UniProt Q9UBN6): the dissociation constant (Kd) with TRAILR4 (Homo sapiens) was greater than 1000 nM.

What is called Kd is the constant that tells how readily two partners part at equilibrium.
